# Measurements as given in the RNAGym collection of RNA variant scans (doi:10.1073/pnas.2313332121).
# This sample holds only a part of the variants without activity.
# B1: TPR 5TU (parent)
# chain: GGAUCUUCUCGAUCUAACAAAAAAGACAAAUCUGCCACAAAGCUUGAGAGCAUCUUCGGAUGCAGAGGCGGCAGCCUUCGGUGGCGCGAUAGCGCCAACGUUCUCAACUAUGACACGCAAAACGCGUGCUCCGUUGAAUGGAGUUUAUCAUG
# Variants of: B1
# Test: polymerase ribozyme fitness, log enrichment relative to wild type (log ratio); higher = more active; in vitro selection for triplet polymerase activity
# In short: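 Mutant libraries of both subunits of a heterodimeric triplet polymerase ribozyme were PCR-built, transcribed, and selected once in triplicate, with frozen incubation at −7 °C and capture of gel-excised extended constructs on streptavidin beads before RT-PCR. Illumina sequencing of input and output libraries was filtered to genotypes with ≥10 input reads and ≥1 read per output. Fitness is the logarithm of genotype enrichment over wild-type enrichment, using inverse-variance-weighted replicate averages. The logarithm is base 2.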
row,Variant,polymerase ribozyme fitness (log ratio)
1,GGAUCUUCUCGAUCUAACCAAAAAGACAAAUCUGCCACAAAGCUUGAGAGAAUCUUCGGAUGCAGAGGCGGCAGACUUCGGUGGCGCGAUAGAGCCAACGUUCUCAACUAUGACACCCAAAACGCGUGCUCCGUUGAAUGGAGUUUAUCAUG [A19C C51A C75A C93A G117C],≤ -4.2
2,GGAUCUUCUCGAUCUAACCAAAAAGACAAAUCUGCCAUAAAGCUUGAGAGCAUCUUCGGAUGCAGAGGCGGCAGCCUUCGGUGGCGCGAUAGCGCUAACGUUCUCAACUAUGACACGCAAAACGCGUGCUCCGUUGAAUGGUGUUUAUCAUG [A19C C38U C96U A142U],-0.812
3,GGAUCUUCUCGAUCUAACCAAAAAGACAAAUCUGCCACAAAGCUUGAGAGCAUCUUCGGAUGCAGAGGCCGCAGCCUUCGGUGGCGCGAUAGCGCCAACGUUGUCAACUAUGACACGCAAAACGCGUGCUCCGUUGAAUGGAGUUUAUCAUG [A19C G70C C103G],≤ -4.2
4,GGAUCUUCUCGAUCUAACCAAAAAGACAAAUCUGCCACAAAGCUUGAGAGCAUAUUCGGAUGCAGAGGCGGCAGCCUGCGGUGGCGCGAUAGCGCUAACGUUCUCAACUAUGACACGCAAAACGCGUGCUCCGUUGAAUGCAGUUUAUCAUG [A19C C54A U78G C96U G141C],≤ -4.2
5,GGAUCUUCUCGAUCUAACCAAAAAGACAAAUCUGCCACAAAGCUUGAGAGCAUCUUCGGAUGCAGAGGCGGCAGCCUUCGGUGGCGCGAUAGCGCUAACGUUCUCGACUAUGACACGCACAACGCGUGCUCCGUUGAAUGGAGUUUAUCAUG [A19C C96U A106G A120C],0.311
6,GGAUCUUCUCGAUCUAACCAAAAAGACAAAUCUGCCACAAAGCUUGAGAGUAUCUUCGGAUGCAGAGGCGGCAGCCUUCGGUGGCGCGAUAGCGCCAACGUUCUCAACUAUGACACGCAAAACGCGUGCUCCGUUGAAUGGCGUUUAUCAUG [A19C C51U A142C],-0.768
7,GGAUCUUCUCGAUCUAACCAAAAAGACAAAUCUGCCACAAAGCUUGAGAGCAUUUUCGGAUGCAGAUGCGGCAGCCUUCGGUGGAGCGAUAGCGCCAACGUUCUCAACUAUGACACGCAAAACGCGUGCUCCGUUGAAUGGAGUUUAUCAUG [A19C C54U G67U C85A],≤ -4.2
8,GGAUCUUCUCGAUCUAACCAAAAAGACAAAUCUGCCACAAAGUUUGAGAGCAUCUUCGGAGGCCGAGGCGGCAGCCGUCGGUGGUGCGAUAGCGCCAACGUUCUCAACUUUGACAGGCAAAACGCGUGCUCCGUUGAAUGGAGUUUAUCAUG [A19C C43U U61G A64C U77G C85U A110U C116G],≤ -4.2
9,GGAUCUUCUCGAUCUAACCAAAAAGACAAAUCUGCCACAAAGCUUAAGAGCAUCUUCGGAUACAGAGGCGGCAGCCUUCGGUGGCGCGAUAGCAACAACGUUCUCAACUAUGACACGCAAAACGCGUGCUCCGUUGAAUGGAGUUUAUCAUG [A19C G46A G62A G94A C95A],≤ -4.2
10,GGAUCUUCUCGAUCUAACCAAAAAGACAAAUCUGCCACAAAGCUUGAGAGCAUCUUAGGAUGCAGAGGCGGCAGCCUUCGGUGGCGCGAUAGCGCCAACGUUCUCAACUAUGACACGCGAAACGCGUACUCCGUUGAAUGGAGUUUAUCAUG [A19C C57A A119G G128A],-4.12
11,GGAUCUUCUCGAUCUAACCAAAAAGACAAAUCUGCCACAAAGCUUGAGAGCAUCUUCCGAUGCAGAGGCGGCAGCCUUCGGUGGCGAGAUAGCGACAGCGUUCUCAACUAUGACACGCAAAACGCGUGCUCCGUUGAAUGGAGUUUAUCAUG [A19C G58C C87A C95A A98G],≤ -4.2
12,GGAUCUUCUCGAUCUAACCAAAAAGACAAAUCUGCCACAAAGCUUGAGAGCAUCUUCGGAUGCACAGGGGGCAGCCUUCGGUGGUGGGAUAGCGCCAACGUGCUCAACUAUGACACGCAAGACACGUGCUCCGUUGAAGGGAGUUUAUCAUG [A19C G65C C69G C85U C87G U102G A121G G124A U139G],≤ -4.2
13,GGAUCUUCUCGAUCUAACCAAAAAGACAAAUCUGUCACAAAGCUUGAGAGCAUCUUCGGAUGCAGAGGCGGCAGCCUUCGGUGGCGCGAUAGCGUCAACGUUCUCAACUAUGACACGCAAAACGCGUGCUCCGUUGAAUGGAGUUUAUCAUG [A19C C35U C95U],0.438
14,GGAUCUUCUCGAUCUAACCAAAAAGACAAAUCUGCCACAAAGCUUGAGAGCAUAUUCGGAUGCAGAGGCGGCAGCCUUCGGUGGCGCGAUAGCGCUAACGUUCUCAACUAUGACACGCAAAGCGCGUGCUCCCUUGAAUGGAGUUUAUCAUG [A19C C54A C96U A122G G133C],-2.39
15,GGAUCUUCUCGAUCUAACCAAAAAGACAAAUCUGCCACAAAGCUUGAGAGCAUUUUCGGAUGCAGAGGCGGCAGCCUUCGGUGGCGCGAUAGCGCCAACGUUCUCAACUAUGACACGCAAAACGCGUGCUCCGUUGAAUGGAGUUUAUCAUG [A19C C54U],-0.474
16,GGAUCUUCUCGAUCUAACCAAAAAGACAAAUCUGCCACAAAGCUUGAGAGCAUCUUAGGAUGCAGAGGCGGCAGCCUUCGGUGGCGCGAUAGCGCCAACGUUCUCAACUAUGACACGCAAAACGCGUGCUACGUUGAAUGGAGUUUAUCAUG [A19C C57A C131A],-2.25
17,GGAUCUUCUCGAUCUAACCAAAAAGACAAAUCUGCCACAAAGCUUGAGAGCAUCUUCGGAUGCAGAGGCGGCAGCCUUCGGUGGCGCGAUAGCGCCAACGUUCUCAACUAUGACACGCAAAAGGCGUGCUCCGUUGAAUGGAGUUUAUCAUG [A19C C123G],0.921
18,GGAUCUUCUCGAUCUAACCAAAAAGACAAAUCUACCACAAAGCUUGAGAGCAUCUUUGGAUGCAGAGGCGGCAGCCUUCGGUGGCCCGAUAGCGCUAUCGUUCUCAACUAUGACACGCAAAACGCGUGCUCCGUUGAAUGGAGUUUAUCAUG [A19C G34A C57U G86C C96U A98U],-3.16
19,GGAUCUUCUCGAUCUAACCAAAAAGACAAAUCUGCCACAAAGCUUGAGAGCAUCUUCGGAUGCAGAGGCGGCAGCCUUCGGUGGCGCGAUAGCGCCAACGUUCUCAACUAUGACACGCAAAACGCGUGGUCCGUUGAAUGGAGUUUAGCAUG [A19C C129G U148G],≤ -4.2
